Publication PMC12093266, “Synergistic action of two radical SAM enzymes in the biosynthesis of thuricin CD, a two-component sactibiotic” (Chemical Science, 2025)

Experiments:
[1] = biological target: TrnC (Bacillus thuringiensis); assay: MST; TrnC fluorescently labeled with RED-NHS; series of diluted TrnD (or TrnD(ΔRRE), or an equimolar mixture of TrnD with TrnA or TrnB) mixed with it in capillaries; Monolith instrument; aerobic conditions
[2] = biological target: TrnC (Bacillus thuringiensis); assay: pull-down; 6× His-tagged TrnC and non-tagged TrnD coexpressed in E. coli from a pRSFduet-1-derived construct; cell lysate purified on Ni-NTA; SDS-PAGE
[3] = biological target: TrnD (Bacillus thuringiensis); assay: MST; TrnD fluorescently labeled; TrnC R370A/K372A mutant as the other partner

Substance	Kd [1]	also measured
equimolar mixture of TrnD and TrnA (complex)	0.54 µM	
TrnD(ΔRRE) (enzyme)	100 µM	
non-tagged TrnD (enzyme)		stoichiometry N [2]: 1
TrnC R370A/K372A mutant (enzyme)		Kd [3]: 10.2 µM
